Measured values published in patent publication US8642555B2, “Prodrugs” (KTB Tumorforschungsgesellschaft mbH, priority 2009, dated 2014).
Numbered stars: 1 amine (or outer) side, 2 acyl side, 3 side chain; on linkers, the order of the positions; unused ones are H or OH. Square brackets hold non-standard residues; d marks the D form. Peptide text beside a SMILES is read from it. * marks the point of attachment. ξ: configuration not given here. X1 = COc1cccc2c1C(=O)c1c(O)c3c(c(O)c1C2=O)C[C@@](O)(C(=O)CO)CC3O[C@H]1C[C@@H](N*)C(O)[C@H](C)O1; Hexanoyl(6-maleimido) = O=C1C=CC(=O)N1CCCCCC(=O)*; PABC = O=C(OCc1ccc(N[*:1])cc1)[*:2]; ξY = NC(Cc1ccc(O)cc1)C(=O)O; ξR = N=C(N)NCCCC(N)C(=O)O; ξL = CC(C)CC(N)C(=O)O; ξS = NC(CO)C(=O)O

Key:
[1] = cited from earlier work
[2] = in vivo; cited from earlier work

Molecule	water-solubility (Water-solubility)	other results
CC(=O)O[C@H]1C(=O)[C@@]2(C)C([C@H](OC(=O)c3ccccc3)[C@]3(O)C[C@H](OC(=O)[C@H](OC(=O)OCc4ccc(NC(=O)C(CC(C)C)NC(=O)C(CO)NC(=O)C(Cc5ccc(O)cc5)NC(=O)C(Cc5ccc(O)cc5)NC(=O)C(CO)NC(=O)C(CO)NC(=O)C(CCCNC(=N)N)NC(=O)CCCCCN5C(=O)C=CC5=O)cc4)[C@@H](NC(=O)c4ccccc4)c4ccccc4)C(C)=C1C3(C)C)[C@]1(OC(C)=O)CO[C@@H]1C[C@@H]2O (stereo partly drawn) [compound 10, EMC-Arg-Ser-Ser-Tyr-Tyr-Ser-Leu-PABC-Paclitaxel]	excellent water-solubility	
COc1cccc2c1C(=O)c1c(O)c3c(c(O)c1C2=O)CC(O)(C(=O)CO)CC3OC1CC(NC(=O)C(CCCNC(=N)N)NC(=O)C(N)CO)C(O)C(C)O1 (stereo not drawn) [Ser-Arg-DOXO]		half-life of liberation of free doxorubicin from the dipeptide [1]: > 48 h
COc1cccc2c1C(=O)c1c(O)c3c(c(O)c1C2=O)C[C@@](O)(C(=O)CO)CC3O[C@H]1C[C@@H](NC(=O)OCc2ccc(NC(=O)C(CC(C)C)NC(=O)C(CO)NC(=O)C(Cc3ccc(O)cc3)NC(=O)C(Cc3ccc(O)cc3)NC(=O)C(CO)NC(=O)C(CO)NC(=O)C(CCCNC(=N)N)NC(=O)CCCCCN3C(=O)C=CC3=O)cc2)C(O)[C@H](C)O1 (stereo partly drawn) [compound 6, EMC-Arg-Ser-Ser-Tyr-Tyr-Ser-Leu-PABC-DOXO] ({Hexanoyl(6-maleimido)}-[ξR][ξS][ξS][ξY][ξY][ξS][ξL][PABC]-X1)	excellent water-solubility	
albumin		half-life in the systemic circulation [2]: up to 19 days
